Laboratory results reported in patent US20220340682A1 (Sanofi, published 2022).

T1: hCEACAM5, human CEACAM5 ECD (35-685) (human, UniProt P06731 35-685)
T1 construct: produced in HEK293; also called human CEACAM5 protein; human CEACAM5 extracellular domain
T1 sequence: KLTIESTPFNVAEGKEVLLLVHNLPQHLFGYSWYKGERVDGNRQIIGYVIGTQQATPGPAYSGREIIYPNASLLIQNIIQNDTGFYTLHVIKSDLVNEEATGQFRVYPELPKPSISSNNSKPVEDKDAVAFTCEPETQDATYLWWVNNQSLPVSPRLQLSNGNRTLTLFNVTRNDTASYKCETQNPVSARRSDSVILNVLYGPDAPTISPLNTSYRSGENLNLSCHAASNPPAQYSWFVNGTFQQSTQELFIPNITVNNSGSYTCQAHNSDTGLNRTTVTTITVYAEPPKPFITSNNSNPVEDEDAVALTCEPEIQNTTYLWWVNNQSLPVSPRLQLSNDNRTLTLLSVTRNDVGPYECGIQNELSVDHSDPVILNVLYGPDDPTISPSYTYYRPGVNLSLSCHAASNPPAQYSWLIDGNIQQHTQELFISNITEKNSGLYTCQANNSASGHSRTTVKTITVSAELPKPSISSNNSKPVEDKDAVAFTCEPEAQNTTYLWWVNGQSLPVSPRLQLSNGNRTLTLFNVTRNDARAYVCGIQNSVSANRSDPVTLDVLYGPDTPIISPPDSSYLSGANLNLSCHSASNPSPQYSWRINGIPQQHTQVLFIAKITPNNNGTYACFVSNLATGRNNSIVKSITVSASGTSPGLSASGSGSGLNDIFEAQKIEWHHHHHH

T2: cCEACAM5, M. fascicularis CEACAM5 ECD (35-688) (Macaca fascicularis)
T2 construct: ECD followed by a 24 amino acid extension containing a His-Tag; also called cynomolgus CEACAM5; monkey CEACAM5
T2 chain: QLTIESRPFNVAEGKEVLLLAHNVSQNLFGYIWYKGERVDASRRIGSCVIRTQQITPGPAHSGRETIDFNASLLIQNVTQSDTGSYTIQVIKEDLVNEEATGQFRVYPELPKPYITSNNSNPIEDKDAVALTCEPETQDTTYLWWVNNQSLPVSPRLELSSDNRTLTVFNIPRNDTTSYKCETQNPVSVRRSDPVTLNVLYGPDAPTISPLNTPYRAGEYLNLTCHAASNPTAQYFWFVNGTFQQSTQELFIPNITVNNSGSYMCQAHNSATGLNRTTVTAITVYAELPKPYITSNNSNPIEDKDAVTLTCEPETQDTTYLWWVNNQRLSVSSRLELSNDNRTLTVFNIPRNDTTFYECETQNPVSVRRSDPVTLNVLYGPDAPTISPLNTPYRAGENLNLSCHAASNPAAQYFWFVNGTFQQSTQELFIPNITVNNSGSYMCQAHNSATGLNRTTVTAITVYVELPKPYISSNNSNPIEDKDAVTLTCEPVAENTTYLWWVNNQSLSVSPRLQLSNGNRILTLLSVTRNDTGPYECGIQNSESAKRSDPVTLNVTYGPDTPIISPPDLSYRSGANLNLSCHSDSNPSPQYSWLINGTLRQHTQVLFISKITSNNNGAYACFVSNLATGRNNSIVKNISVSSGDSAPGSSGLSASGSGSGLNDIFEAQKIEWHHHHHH

T3: human CEACAM5 expressed on the surface of tumor cells (human, UniProt P06731 35-685)
T3 construct: Endogenous CEACAM5 of human tumor cells; also called hCEACAM5 on MKN45 cells; CEACAM5 on CR-IGR-034P primary colon tumor cells
T3 sequence: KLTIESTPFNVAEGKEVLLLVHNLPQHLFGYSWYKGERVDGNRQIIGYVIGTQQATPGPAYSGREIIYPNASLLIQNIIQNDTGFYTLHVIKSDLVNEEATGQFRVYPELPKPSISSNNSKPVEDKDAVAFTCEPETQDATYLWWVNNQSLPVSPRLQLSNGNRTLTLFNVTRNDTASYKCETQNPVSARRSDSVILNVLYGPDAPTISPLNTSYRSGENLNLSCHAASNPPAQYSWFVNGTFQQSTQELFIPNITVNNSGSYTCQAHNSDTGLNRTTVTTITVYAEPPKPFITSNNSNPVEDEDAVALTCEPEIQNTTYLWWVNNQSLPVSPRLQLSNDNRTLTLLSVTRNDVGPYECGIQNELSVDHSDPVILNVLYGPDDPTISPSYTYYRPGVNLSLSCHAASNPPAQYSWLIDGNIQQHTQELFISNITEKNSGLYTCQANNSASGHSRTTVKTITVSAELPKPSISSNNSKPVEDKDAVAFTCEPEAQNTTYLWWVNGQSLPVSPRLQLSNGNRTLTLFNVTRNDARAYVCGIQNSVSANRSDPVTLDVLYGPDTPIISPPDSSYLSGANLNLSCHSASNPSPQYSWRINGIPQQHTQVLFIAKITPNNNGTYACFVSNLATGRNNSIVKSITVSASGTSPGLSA


Columns and labels:
[1] = molecular target: T1, hCEACAM5, human CEACAM5 ECD (35-685); assay: ELISA
[2] = molecular target: T2, cCEACAM5, M. fascicularis CEACAM5 ECD …; assay: ELISA
[3] = molecular target: T3, human CEACAM5 expressed on the surface …; assay: flow cytometry on MKN45 cells
Protocol: The apparent affinity of anti-CEACAM5 antibodies to hCEACAM5 expressed on the surface of human MKN45 (DSMZ, ACC 409) tumoral cells were determined by Guava® easyCyte™ 8HT Flow Cytometry System. MKN45 tumoral cells were coated at 40,000 cells/well on 96-well High Bind plate (MSD L15XB-3) and 100 μL/well of anti-CEACAM5 antibodies were added in 2-fold serial dilutions starting at 20 μg/ml up to 12 dilutions in assay diluant for 45 min at 4° C. and washed three times with PBS 1% BSA. 100 μL/well of goat anti-mouse IgG conjugated with Alexa647 (Invitrogen; # A2135) was added for 45 min at 4° C. and washed three times with PBS 1% BSA. The antibody binding was evaluated after centrifugation and resuspension of cells by adding 200 μl/well PBS 1% BSA and read using Guava® easyCyte™ 8HT Flow Cytometry System. Apparent KD and EC₅₀ values were estimated using BIOST@T-BINDING and BIOST@T-SPEED softwares, respectively.

Row | EC50 [1] | EC50 [2] | EC50 [3] | Binder
1 | 0.18 nM | 0.19 nM |  | huMAb2-3 (antibody, human IgG1, kappa, V domains shown, Humanized MAb2, human IgG1 / Ckappa; also called MAb2_VL1cVH1a-IgG1) VH: EVQLQESGPGLVKPGGSLSLSCAASGFVFSSYDMSWVRQTPERGLEWVAYISSGGGITYAPSTVKGRFTVSRDNAKNTLYLQMNSLTSEDTAVYYCAAHYFGSSGPFAYWGQGTLVTVSS VL: DIQMTQSPASLSASVGDRVTITCRASENIFSYLAWYQQKPGKSPKLLVYNTRTLAEGVPSRFSGSGSGTDFSLTISSLQPEDFATYYCQHHYGTPFTFGSGTKLEIKR
2 | 0.22 nM | 0.2 nM |  | huMAb2-1 (antibody, V domains shown, Humanized MAb2 (VL1 + VH1) fused to human IgG1 and human Ckappa constant domains; also called MAb2_VL1VH1-IgG1; MAb2VL1VH1-IgG1) VH: EVQLQESGPGLVKPGGSLSLSCAASGFVFSSYDMSWVRQTPERRLEWVAYISSGGGITYFPSTVKGRFTVSRDNAKNTLYLQMNSLTSEDTAIYYCAAHYFGSSGPFAYWGQGTLVTVSA VL: DIQMTQSPASLSASVGDTVTITCRASENIFSYLAWYQQKPGKSPKLLVYNTKTLAEGVPSRFSGSGSGTQFSLTISSLQPEDFGSYYCQHHYGTPFTFGSGTKLEIK
3 | 0.22 nM | 0.17 nM |  | huMAb2-4 (antibody, human IgG1, kappa, V domains shown, Humanized MAb2, human IgG1 / Ckappa; also called MAb2_VL1d VH1-IgG1; MAb2_VL1dVH1-IgG1) VH: EVQLQESGPGLVKPGGSLSLSCAASGFVFSSYDMSWVRQTPERRLEWVAYISSGGGITYFPSTVKGRFTVSRDNAKNTLYLQMNSLTSEDTAIYYCAAHYFGSSGPFAYWGQGTLVTVSA VL: DIQMTQSPASLSASVGDTVTITCRASENIFSYLAWYQQKPGKSPKLLVYNTRTLAEGVPSRFSGSGSGTQFSLTISSLQPEDFGSYYCQHHYGTPFTFGSGTKLEIKR
4 | 0.2 nM | 0.17 nM |  | huMAb2-2 (antibody, V domains shown, Humanized MAb2 (VL1a + VH1a) fused to human IgG1 and human Ckappa constant domains; also called MAb2_VL1aVH1a-IgG1; MA2_VL1aVH1a-IgG1) VH: EVQLQESGPGLVKPGGSLSLSCAASGFVFSSYDMSWVRQTPERGLEWVAYISSGGGITYAPSTVKGRFTVSRDNAKNTLYLQMNSLTSEDTAVYYCAAHYFGSSGPFAYWGQGTLVTVSS VL: DIQMTQSPASLSASVGDRVTITCRASENIFSYLAWYQQKPGKSPKLLVYNTKTLAEGVPSRFSGSGSGTDFSLTISSLQPEDFATYYCQHHYGTPFTFGSGTKLEIK
5 | 0.16 nM | 0.17 nM |  | chMAb2 (antibody, human IgG1, kappa, V domains shown, Chimeric, human IgG1, Ck isotype; also called MAb2-IgG1; chimeric MAb2) VH: EVQLQESGGVLVKPGGSLKLSCAASGFVFSSYDMSWVRQTPEKRLEWVAYISSGGGITYFPDTVQGRFTVSRDNAKNTLYLQMNSLKSEDTAIYYCAAHYFGSSGPFAYWGQGTLVTVSA VL: DIQMTQSPASLSASVGETVTITCRASENIFSYLAWYQQKQGKSPQLLVYNTKTLAEGVPSRFSGSGSGTQFSLKINSLQPEDFGSYYCQHHYGTPFTFGSGTKLEIKR
6 |  |  | 16 nM | antibody MAb1 (antibody, IgG1, V domains shown) VH: EVMLVESGGGLVKPGGSLKLSCAASGFTFSSYAMSWVRQTPEKRLEWVATISSGGSYIYYLDSVKGRFTISRDNAKNTLYLQMSSLRSEDTAMYYCARPAYYGNPAMDYWGQGTSVTVSS VL: DILMTQSQKFMSTSVGDRVSVTCKASQNVGTNVAWYQQKPGQSPKPLIYSASYRYSGVPDRFTGSGSGTDFTLTISNVQSEDLAEYFCQQYNSYPLYTFGGGTKLEIK
7 |  |  | 6.2 nM | antibody MAb3 (antibody, IgG1, V domains shown, Murine monoclonal from hybridoma, IgG1, kappa) VH: EVKLVESGGGLVKPGGSLTLPCAASGFTFSRYAMSWVRQTPEKRLEWVASISSGGDTYYPDSVKGRFTVSRDNARNILFLQMSSLRSEDTGMYYCARVNYYDSSFLDWWGQGTTLTVSS VL: DIVMTQSQRFMSTLEGDRVSVTCKASQNVGTNVAWYQQKPGQSPKALIYSASYRYSGVPDRFTGSGSGTDFTLTISNVQSEDLAEYFCQQYNNYPLYTFGGGTKLEIK
8 |  |  | 4.9 nM | antibody MAb4 (antibody, IgG1, V domains shown, Murine monoclonal from hybridoma, IgG1, kappa) VH: EVQLVESGGGLVKPGGSLKLSCAASGFTFSSYDMSWVRQTPEKRLEWVAFISSYGGRTYYADTVKGRFTISRDNAKNTLYLQMSSLKSEDTAMFYCAAHYFGTSGPFAYWGQGTLVTVSA VL: DIQMTQSPASLSASVGETVTITCRASENIYSYFAWYQQKQGKSPQLLVYNAKILAEGVPSRFSGSGSGTQFSLKINSLQPEDFGTYYCQHHYGIPFTFGSGTKLELK
9 |  |  | 0.73 nM | antibody MAb5 (antibody, IgG1, V domains shown, Murine monoclonal from hybridoma, IgG1, kappa) VH: ELQLVESGGVLVKPGGSLKLSCAASGFAFSSYDMSWVRQTPEKRLEWVTYINSGGGITYYPDTVKGRFTISRDNARNTLYLQMSSLKSEDTAIYYCTAHYFGSSGPFAYWGQGTLVTVSA VL: DIQMTQSPASLSASVGETVTITCRASENIYSYLAWYQQKQGKSPQLLVYNAKTLTEGVPSRFSGSGSGTQFSLKINSLQPEDFGSYYCQHHYGTPFTFGSGTKLEIK
